Residue numbers refer to the chain shown, from its start.
T1: human MerTK-his protein (human, UniProt Q12866 21-505)
T1 construct: extracellular domain; also called hMerTK-His; human MerTK protein
T1 sequence (looked up): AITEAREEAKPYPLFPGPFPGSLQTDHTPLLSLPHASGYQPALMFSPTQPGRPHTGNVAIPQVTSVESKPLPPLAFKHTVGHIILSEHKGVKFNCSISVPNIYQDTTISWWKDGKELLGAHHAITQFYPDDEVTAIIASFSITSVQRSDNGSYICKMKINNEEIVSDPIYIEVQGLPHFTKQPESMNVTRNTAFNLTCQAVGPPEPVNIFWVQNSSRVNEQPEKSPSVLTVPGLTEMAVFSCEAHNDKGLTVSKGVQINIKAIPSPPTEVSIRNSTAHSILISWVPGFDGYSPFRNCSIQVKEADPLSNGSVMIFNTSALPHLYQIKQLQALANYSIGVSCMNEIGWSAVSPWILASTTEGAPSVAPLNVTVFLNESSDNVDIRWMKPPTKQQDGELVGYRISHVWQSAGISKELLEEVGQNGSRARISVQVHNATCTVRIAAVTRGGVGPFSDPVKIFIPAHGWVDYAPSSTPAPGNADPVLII

T2: human MerTK expressed on cells (human, UniProt Q12866 21-999)
T2 construct: whole, on cells; also called CHO-K1-hMerTK; CHO-K1-MerTK
T2 sequence (looked up): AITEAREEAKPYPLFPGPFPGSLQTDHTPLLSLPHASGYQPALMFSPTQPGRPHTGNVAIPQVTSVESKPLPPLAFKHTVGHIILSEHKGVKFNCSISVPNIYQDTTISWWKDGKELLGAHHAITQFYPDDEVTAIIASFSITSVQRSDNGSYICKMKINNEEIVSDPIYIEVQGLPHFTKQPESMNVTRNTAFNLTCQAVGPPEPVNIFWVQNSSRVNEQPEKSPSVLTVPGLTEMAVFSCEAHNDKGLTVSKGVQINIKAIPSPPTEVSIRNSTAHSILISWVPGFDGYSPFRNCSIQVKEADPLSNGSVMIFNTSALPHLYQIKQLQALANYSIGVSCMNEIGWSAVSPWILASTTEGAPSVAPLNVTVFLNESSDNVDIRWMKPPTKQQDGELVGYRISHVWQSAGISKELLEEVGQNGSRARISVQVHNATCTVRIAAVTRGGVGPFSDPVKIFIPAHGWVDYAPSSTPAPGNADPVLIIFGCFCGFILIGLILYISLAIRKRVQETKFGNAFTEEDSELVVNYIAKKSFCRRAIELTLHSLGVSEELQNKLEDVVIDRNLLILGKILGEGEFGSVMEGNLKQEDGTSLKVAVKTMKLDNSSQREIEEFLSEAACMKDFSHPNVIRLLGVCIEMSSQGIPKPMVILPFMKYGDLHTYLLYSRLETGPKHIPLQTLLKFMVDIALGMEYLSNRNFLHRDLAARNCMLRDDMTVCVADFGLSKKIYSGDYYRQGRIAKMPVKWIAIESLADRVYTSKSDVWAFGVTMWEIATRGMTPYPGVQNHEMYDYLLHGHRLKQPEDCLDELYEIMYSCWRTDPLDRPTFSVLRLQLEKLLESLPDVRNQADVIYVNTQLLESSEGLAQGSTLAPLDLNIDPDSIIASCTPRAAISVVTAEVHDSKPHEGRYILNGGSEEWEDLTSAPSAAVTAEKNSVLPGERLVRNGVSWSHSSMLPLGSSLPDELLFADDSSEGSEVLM

B1: 10F7D9 Hu-2 (antibody, V domains shown)
VH: QIQLVQSGSELKKPGASVKVSCKASGYTFTNYGMNWVRQAPGQGLEWMGWINTYTGEPTYADDFKGRFVFSLDTSVSTAYLQISSLKAEDTAVYYCATYGHYAWFAYWGQGTLVTVSS
VL: EIVLTQSPDFQSVTPKEKVTITCRASSSVSYMHWYQQKPDQSPKLLIKATSNLASGVPSRFSGSGSGTDFTLTINSLEAEDAATYYCQQWGTKPLTFGQGTKLEIK
notes: also called Hu-2 of 10F7D9
B2: 10F7D9 Hu-6 (antibody, V domains shown)
VH: B1 VH with I2V, V20I, S84N, S85N, Y95F
VL: B1 VL
notes: also called Hu-6 of 10F7D9
B3: 10F7D9 Hu-3 (antibody, V domains shown)
VH: B1 VH with Y95F
VL: B1 VL
notes: also called Hu-3 of 10F7D9
B4: 10F7D9 Hu-1 (antibody, V domains shown)
VH: B1 VH with I2V, T98R
VL: B1 VL
notes: also called Hu-1 of 10F7D9
B5: 10F7D9 Hu-8 (antibody, V domains shown)
VH: B1 VH
VL: B1 VL with L45P, L46W
notes: also called Hu-8 of 10F7D9
B6: 10F7D9 Hu-4 (antibody, V domains shown)
VH: B1 VH with E46K, Y95F
VL: B1 VL
notes: also called Hu-4 of 10F7D9
B7: 10F7D9 Hu-14 (antibody, V domains shown)
VH: B1 VH
VL: B1 VL with L45P, L46W, K48Y, Y86F
notes: also called Hu-14 of 10F7D9
B8: 265F11B5Hu-6 (antibody, V domains shown)
VH: QVQLVQSGAEVKKPGASVKVSCKASGYTFTTYDINWVRQAPGQGLEWMGWIYPRDGYTKYNEKFKGRVTMTTDTSTSTAYMELRSLRSDDTAVYYCTRGYYDNLYYFDYWGQGTTVTVSS
VL: EIVLTQSPDFQSVTPKEKVTITCSASSIISSNYFHWYQQKPDQSPKLLIKRTSNLASGVPSRFSGSGSGTDYTLTINSLEAEDAATYYCQQGRSVPLTFGQGTKLEIK
B9: 265F11B5Hu-9 (antibody, V domains shown)
VH: B8 VH with T97A
VL: B8 VL with K50Y
B10: 265F11B5Hu-8 (antibody, V domains shown)
VH: B8 VH with M48I, V68A, M70L, T71A, T72V, Y95F
VL: B8 VL
B11: 265F11B5Hu-5 (antibody, V domains shown)
VH: B8 VH with T97A
VL: B8 VL
B12: 265F11B5Hu-2 (antibody, V domains shown)
VH: B8 VH
VL: B8 VL with Y72F
B13: 265F11B5Hu-7 (antibody, V domains shown)
VH: B8 VH with M48I, V68A, Y95F
VL: B8 VL
B14: 265F11B5Hu-4 (antibody, V domains shown)
VH: B8 VH with M48I, V68A, M70L, T71A, T72V, Y95F
VL: B8 VL with Y72F
B15: 265F11B5Hu-10 (antibody, V domains shown)
VH: B8 VH
VL: B8 VL with K50Y
B16: 265F11B5Hu-3 (antibody, V domains shown)
VH: B8 VH with M48I, V68A, Y95F
VL: B8 VL with Y72F
B17: 265F11B5Hu-1 (antibody, V domains shown)
VH: B8 VH with T97A
VL: B8 VL with Y72F
B18: 265F11B5Hu-11 (antibody, V domains shown)
VH: B8 VH with M48I, V68A, Y95F
VL: B8 VL with K50Y

Target: T1, human MerTK-his protein
Assay: ELISA, plate coated with human MerTK-his, OD 450nm
Description: (§1) To evaluate the binding activity, the chimeric mAbs were subjected to ELISA test. Briefly, 96-well plates were coated with human or cyno MerTK-his protein at 2 μg/mL in PBS, 100 μL/well at 4° C. overnight, then blocked with 150 μL/well of 1% BSA. Five-fold dilutions of MerTK antibodies starting from 20 nM were added to each well and incubated for 1 hour at room temperature. The plates were washed with PBS/Tween-20 and then incubated with goat anti-human IgG Fe antibody conjugated with Horse Radish Peroxidase (HRP) for 30 minutes (mins) at room temperature. After washing, the plates were developed with TMB substrate and subsequent stop solution was added to complete the reaction. The signal from each well was read by spectrophotometer at OD 450 nm.
(§2) To evaluate the antigen binding activity, the humanized antibodies were subjected to ELISA test as described before.

EC50 [nM] | Binder
0.035 | B1
0.033 | B2
0.034 | B3
0.028 | B4
0.0024 | B5
0.027 | B6
0.027 | B7
0.044 | B8
0.059 | B9
0.037 | B10
0.062 | B11
0.054 | B12
0.021 | B13
0.068 | B14
0.045 | B15
0.06 | B16
0.042 | B17

Target: T2, human MerTK expressed on cells
Assay: FACS on CHO-K1 cells overexpressing human MerTK, MFI (AF488)

EC50 [nM] | Binder
0.17 | B8
0.19 | B9
0.14 | B10
0.17 | B11
0.14 | B12
0.14 | B13
0.13 | B14
0.19 | B15
0.22 | B16
0.16 | B17

Target: T1, human MerTK-his protein
Assay: ELISA, plate coated with human MerTK-his, OD 450nm
Remark: another data set of the same source
Description: as §1, §2

EC50 [nM] | Binder
0.042 | B18

Target: T2, human MerTK expressed on cells
Assay: FACS on CHO-K1 cells overexpressing human MerTK, MFI (PE)
Description: To evaluate the binding property to the antigen expressed on the cells, the chimeric monoclonal antibodies were analyzed for their binding to human MerTK overexpressed on CHO-K1 cells by FACS. Briefly, human MerTK overexpressing CHO-K1 (CHO-K1-MerTK) cells were firstly incubated with 5-fold serially diluted mAbs starting at 20 nM at 4° C. for 1 hour. After washing with FACS buffer, the PE conjugated anti-human IgG-Fc secondary antibody was added to each well and incubated at 4° C., for 30 mins. The mean fluorescence intensity (MFI) of PE were evaluated by QuantAnalyzer 16.
To evaluate the binding property to the antigen expressed on the cells, the humanized antibodies were analyzed by FACS as described before.

EC50 [nM] | Binder
0.45 | B1
0.45 | B2
1.2 | B3
0.29 | B4
0.1 | B5
0.47 | B6
0.15 | B7

Target: T2, human MerTK expressed on cells
Assay: FACS on CHO-K1 cells overexpressing human MerTK, MFI (AF488)
Remark: another data set of the same source

EC50 [nM] | Binder
0.22 | B18

Target: T1, human MerTK-his protein
Assay: SPR Biacore 8K, antibody captured on Protein A chip, 50 nM antigen
Description: To explore whether the humanized antibodies could maintain their binding kinetics, affinity ranking were performed with Biacore™. The antibodies were captured with a Protein A chips. Human MerTK-his protein at 50 nM was injected over captured antibodies for 180 s at a flow rate of 30 μL/min. The antigen was allowed to dissociate for 600 s. The experiment was carried out on a Biacore™ 8K. Data analysis was carried out using Biacore™ 8K evaluation software.

Kd [nM] | koff [s⁻¹] | kon [M⁻¹ s⁻¹] | Binder
1.4 | 0.000278 | 199000 | B8
2.17 | 0.000443 | 204000 | B9
0.174 | 3.95e-05 | 227000 | B10
1.16 | 0.000232 | 200000 | B11
1.27 | 0.00025 | 197000 | B12
0.719 | 0.000155 | 216000 | B13
0.856 | 0.000172 | 201000 | B14
2.52 | 0.000463 | 184000 | B15
1.02 | 0.000204 | 199000 | B16
1.15 | 0.000232 | 201000 | B17
1.94 | 0.000378 | 195000 | B18

Source: patent US20260028422A1 (CONCEPT TO MEDICINE BIOTECH, published 2026)
